{"source": "patent US20260227408A1", "about": "“Compositions and Methods for Modulation of Immune Responses” (Flagship Pioneering Innovations VI, LLC, priority 2022, published 2026)", "molecules": {"B1": {"name": "SEQ ID NO: 36545: novel inhibitory ligand that suppresses NK-mediated cytotoxicity; lncRNA encoded protein (protein, listed as Homo sapiens)", "chain": "MPEDLLFLDAAAQGLYFMLWLLSFELSVAVSELLRFTGPWRILSYTVHWVLDMQSVPFIAFLENNN"}, "B2": {"name": "SEQ ID NO: 33741: target protein of the Sequence Listing, applied as peptide to PBMCs (peptide, listed as Homo sapiens)", "chain": "MSYLPTNPPGSILTCWLGVSLGSHRSARGGSTIYGRLLPRRKDVWFSQAKDVPKYRGLLYLQS"}, "B3": {"name": "SEQ ID NO: 37477: target protein of the Sequence Listing, applied as peptide to PBMCs (peptide, listed as Homo sapiens)", "chain": "MSCGSRRGPSLASSLAWLQLQSGTRPFCSSSPPYFLSHGRRIPFSHPRKESALRATKEPRTHRTNTSLADLPSPAPAHL"}, "B4": {"name": "SEQ ID NO: 35050: novel co-stimulatory ligand that potentiates NK-mediated cytotoxicity; lncRNA-encoded protein (protein, listed as Homo sapiens)", "chain": "IYAHVGTEESSVVAMFSPQELTGEGMGQDPSLCKASVTVMFQVFLMTVCLYLTVLLTNNLLGSKGQHLLSKAQEEFEEN"}, "B5": {"name": "SEQ ID NO: 37776: novel co-stimulatory ligand that potentiates NK-mediated cytotoxicity; lncRNA-encoded protein (protein, listed as Homo sapiens)", "chain": "MACIYPTTFYTSLPTKSLNMGISLTTILILSVAVLLSTAAPPSCRECYQSLHYRGEMQQYFTYHTHIERSCYGNLIEECVESGKSYYKVKNLGVCGSRNGAICPRGKQWLCFTKIGQWGVNTQVLEDIKREQIIAKAKASKPTTPPENRPRHFHSFIQKL"}, "B6": {"name": "SEQ ID NO: 37047: target protein of the Sequence Listing, applied as peptide to PBMCs (peptide, listed as Homo sapiens)", "chain": "MMAQKSKFRVLFMSDPHGTAMPLTSAILESSRASLAAKQEDKCFTDIRNLKWKHFLEHTKQPP"}, "B7": {"name": "SEQ ID NO: 38393: target protein of the Sequence Listing, applied as peptide to PBMCs (peptide, listed as Homo sapiens)", "chain": "VALSLLTSQGRQRRAGPSTAFAALPATVATFSAMTESESLRTSRHADTALARVRRGAKFRGQARTRYCARARSHRFTPPSGA"}, "B8": {"name": "SEQ ID NO: 2013: novel inhibitory ligand that suppresses NK-mediated cytotoxicity; lncRNA encoded protein (protein, listed as Homo sapiens)", "chain": "MLSEGKPIPRREGKTATTERTFAVPVWKEIGISWRGLASTAGLFKSSTSILEENNADSRKMACHFGMCLAALLIKGKVLFFTF"}, "B9": {"name": "SEQ ID NO: 36902: target protein of the Sequence Listing, applied as peptide to PBMCs (peptide, listed as Homo sapiens)", "chain": "MQRLPAAFFRSFAAQGLGESVHINTPTSLSLRGRPFISSSGPGARARVTCAPCLHAARILCCFWRGLHR"}}, "key": {"[1]": {"tested_on": "Raji cells (human B cell lymphoma)", "assay": "pooled CRISPR KO screen: Raji cell killing by primary NK cells", "assay_type": "cell-based", "conditions": "CRISPR KO of the protein in Raji cells, 24 hours co-culture with primary NK cells; for co-stimulatory effect on NK cytotoxicity (loss of function inhibits Raji cell killing): Example 4; for inhibitory effect on NK cytotoxicity (loss of function potentiates Raji cell killing): Example 5", "method": "CRISPR system was used to generate a pooled KO library comprising 4,708 individual novel proteins within 2,127 lncRNAs and 998 known proteins in Raji cells (human B cell lymphoma). To understand the role of these proteins in modulation of NK cell cytotoxicity we conducted a cell killing assay using primary human NK cells. We examined the change in the initial library representation in Raji cells with the library representation after 24 hours of co-incubation with NK cells. We used known regulators of NK cell cytotoxicity as reference to establish hit significance.\nCRISPR KO generation. CRISPR guide RNA library has been designed at ProFound Therapeutics to target 4,708 distinct predicted novel proteins localized within 2,127 lncRNA, 998 known proteins, including positive (inhibitors, for example B2M, TAP1, TAP2, HLA-DM) and negative (co-stimulators, for example, ICAM1, FAS, IL7, DGKE) of NK cell function, and 900 neutral controls (non-targeting and intergenic guide RNAs). The CRISPR guide RNA library was packaged into lentivirus, transduced into Raji Cas9 line at the MOI of 0.3 and selected using puromycin selection as described in [Sanjana N E, Shalem O, Zhang F. Nat. Methods. 2014 August; 11(8):783-4.\nNK isolation and expansion. Primary human NK cells were isolated from frozen PBMCs using EasySep human NK cell isolation kit (StemCell, catalog #17955). Primary human NK cells were expanded using immunoCult NK cell expansion kit (StemCell, catalog #100-0711) following manufacturer protocol.\nScreen setup. The screen was performed using 4 biological replicates. The NK cytotoxicity assay was performed by co-culturing 20 million Raji CRISPR KO library cells with 60 million primary NK cells for 24 hours in T75 tissue culture flask. NK cells were removed using positive CD56 selection kit (StemCell, catalog #17855). Dead cells were removed using EasySep dead cell removal (Annexin V) kit (StemCell, catalog #17899). Remaining Raji CRISPR KO library cells have been processed to extract genomic DNA. NGS library prep and illumina sequencing was performed on these cells and Raji cells prior to exposure to NK as described in [Sanjana N E, Shalem O, Zhang F. Nat. Methods. 2014 August; 11(8):783-4.\nData analysis. Screen analysis and interpretation was performed using ProFound Tx custom data analysis tools and confirmed with MAGeCK-VISPR as described in [Li W, Koster J, Xu H, Chen C H, Xiao T, Brown M, Liu S. Genome Biology 2015(281)].\nData analysis. Screen analysis and interpretation has been performed using ProFound Tx custom data analysis tools and confirmed with MAGeCK-VISPR as described in [Li W, Koster J, Xu H, Chen C H, Xiao T, Brown M, Liu S. Genome Biology 2015(281)]."}, "[2]": {"tested_on": "Peripheral Blood Mononuclear Cells", "assay": "PBMC cytokine release by CBA, Activation format (peptide alone)", "assay_type": "cell-based, human", "design": "key: X = a hit with significant activation or inhibition of relevant cytokine release", "conditions": "peptide applied to PBMCs alone; supernatant CBA after 24 hours", "method": "(§1) CBA (Cytometry) experiment looking at pro-inflammatory cytokines produced by PBMCs treated with secreted peptides.\n(§2) Peripheral Blood Mononuclear Cells were seeded+/−the T-cell activator […] and +/−peptides for 24-48 hours. Cytokines were measured from the supernatant after incubation by CBA Cytometer.\n(§3) Thawing PBMCs: PBMCs were thawed by pre-warming TexMACS media (Miltenyi Biotech) in 20 ml aliquots-1-50 ml conical per donor. After the media was warmed to 37° C., cells were removed from liquid nitrogen and brought to the tissue culture hood. For each donor, 1 ml of media from the warmed aliquot was added to the frozen vial and mixed up and down. The media plus thawed cells were then added back to the 50 ml conical. This was repeated until all the cells were thawed and added to the 50 ml tube. Continue with other donors if used. Spin cells for 5 min at 400×g. Supernatant was aspirated and cells resuspended at ~10*10^6 cells/ml (see vial for cell number).\n(§4) PBMC Plating: Frozen PBMCs from normal, healthy, human volunteers (StemCell Technologies) were thawed and plated at 250,000 cells/well. After PBMCs were thawed and resuspended at […], cells were then counted (Countess III, Thermo Scientific) and adjusted based on counts to […]. Take the number of PBMCs determined by number of wells for the experiment, for example, 10 wells would need 2.5*10^6 cells total or 0.250 ml. The cells needed for the experiment are then transferred to another conical tube. Warmed TexMACS media is added so that the final concentration is 250,000 cells/190 ul media, for example, 10 wells would need 1.9 ml (190 ul×10 wells) of media total minus 0.250 ml of cells (1.9 ml-0.250 ml) or 1.65 ml of media added to the 0.250 ml of cells. Add 190 ul of cells plus media to the 96 well U-bottom plate. Place in incubator until dilutions are made and ready.\n(§5) Peptide Dilutions: Ideally, all peptides should be at a starting concentration of at least 10 mM, especially for those in DMSO (ATCC) to reach a final concentration of 1 uM (H2O) or 0.5 uM (DMSO). Dilutions of all test articles should be made at 20× the final concentration, for example, a final concentration of 1 uM peptide would need to be made at 20 uM.\n(§6) Reagent Dilution: Dilutions are made in TexMACS media, enough for 10 ul/well in triplicate (30 ul of a 20×). Activator—CD3/CD28 (TransAct; Miltenyi Biotech) or cytokine will be at 21× and added after the 45-minute incubation with peptides. Be sure to include relevant controls—Positive: TransAct+Cells, Negative: Vehicle+Cells. Dilutions should also be made in a ultra-low binding plate (Corning).\n(§7) Assay Procedure: Peptide Treatment: Start assay by thawing the cells and plating in a 96 well, U-bottom tissue culture plate (Corning) as described above. Cell plates are placed in a tissue culture incubator (5% CO2, 37° C.). While cells are in the incubator, start making dilutions (optimally 1 hr or less) as described above. Cell plates are removed from the incubator and 10 ul of the 20× dilutions are added to the relevant wells. After the addition of inhibitors, cell plates are placed in the tissue culture incubator for 45 minutes. The plates are removed from the incubator and 10 ul of […] TransAct is added to the relevant wells*. Plates are then returned to the incubator and incubated for 24 hours. After 24 hours, plates are spun for 5 minutes at 400×g. * Activation: This assay can be run in two different formats—Activation and Inhibition. The procedure is the same except no TransAct is needed in the peptide wells for Activation. TransAct is only needed in the control wells. The purpose of this procedure is to determine the possible response from peptides alone.\n(§8) Cytometric BeadArray (CBA): After the spin, supernatants (~150 ul) are transferred to a new, ultra-low binding U-bottom plate. Supernatants are then frozen at −20° C. until thawed for CBA (BD) to determine levels of human IL-2, TNFa, IL-1b, IP-10, IL-10, and IFNg. […]"}, "[3]": {"tested_on": "CD3/CD28 (TransAct) activated PBMCs", "assay": "PBMC cytokine release by CBA, Inhibition format (peptide with CD3/CD28 TransAct activator)", "assay_type": "cell-based, human", "design": "key to Inhibition by Analyte IL-1b / Inhibition by Analyte IL-2 / Inhibition by Analyte TNF / Inhibition by Analyte IP-10 / Inhibition by Analyte IL-10: X = a hit with significant activation or inhibition of relevant cytokine release", "conditions": "peptide applied with anti-CD3/CD28 T-cell activator; supernatant CBA after 24 hours", "method": "as §1, §2, §3, §4, §5, §6, §7, §8"}}}
{"molecule": "SEQ ID NO: 33482: novel co-stimulatory ligand that potentiates NK-mediated cytotoxicity; lncRNA-encoded protein (VVTGSILLSLPITQHLPLKALPRPGLPPFKMSGSVQDLLLGHIALLGLVQVILPPQPPK; listed as Homo sapiens)", "values": [{"measurement": "co-stimulatory effect on NK cytotoxicity (loss of function inhibits Raji cell killing)", "setting": "[1]", "value": "strong phenotypes"}]}
{"molecule": "SEQ ID NO: 35558: target protein of the Sequence Listing, applied as peptide to PBMCs (MTAFGLGIPTFLVMQPSGSQPRFPALTQNGVALVRTPLTSVYLRVRICRVLGPRSQPS; listed as Homo sapiens)", "values": [{"measurement": "Activation by Analyte IL-10", "setting": "[2]", "value": "X"}, {"measurement": "Activation by Analyte IP-10", "setting": "[2]", "value": "X"}, {"measurement": "Inhibition by Analyte IL-1b", "setting": "[3]", "value": "X"}, {"measurement": "Inhibition by Analyte TNF", "setting": "[3]", "value": "X"}]}
{"molecule": "SEQ ID NO: 35586: novel inhibitory ligand that suppresses NK-mediated cytotoxicity; lncRNA encoded protein (MWQNLNGDISSLWVSSLLAFNQLFCLTAAGLGTAQPP; listed as Homo sapiens)", "values": [{"measurement": "inhibitory effect on NK cytotoxicity (loss of function potentiates Raji cell killing)", "setting": "[1]", "value": "strong phenotypes"}]}
{"molecule": "B1", "values": [{"measurement": "inhibitory effect on NK cytotoxicity (loss of function potentiates Raji cell killing)", "setting": "[1]", "value": "strong phenotypes"}]}
{"molecule": "B2", "values": [{"measurement": "Activation by Analyte IP-10", "setting": "[2]", "value": "X"}]}
{"molecule": "B3", "values": [{"measurement": "Activation by Analyte IL-1b", "setting": "[2]", "value": "X"}]}
{"molecule": "B4", "values": [{"measurement": "co-stimulatory effect on NK cytotoxicity (loss of function inhibits Raji cell killing)", "setting": "[1]", "value": "strong phenotypes"}]}
{"molecule": "B5", "values": [{"measurement": "co-stimulatory effect on NK cytotoxicity (loss of function inhibits Raji cell killing)", "setting": "[1]", "value": "strong phenotypes"}]}
{"molecule": "B6", "values": [{"measurement": "Activation by Analyte IP-10", "setting": "[2]", "value": "X"}]}
{"molecule": "B7", "values": [{"measurement": "Activation by Analyte IP-10", "setting": "[2]", "value": "X"}]}
{"molecule": "B8", "values": [{"measurement": "inhibitory effect on NK cytotoxicity (loss of function potentiates Raji cell killing)", "setting": "[1]", "value": "strong phenotypes"}]}
{"molecule": "B9", "values": [{"measurement": "Activation by Analyte IP-10", "setting": "[2]", "value": "X"}]}
